This is an account of results in IntAct's records for PubMed 29892012.

B1: Enhancer of mRNA-decapping protein 3 (Homo sapiens), Q96F86 (parent)
chain: MATDWLGSIVSINCGDSLGVYQGRVSAVDQVSQTISLTRPFHNGVKCLVPEVTFRAGDITELKILEIPGPGDNQHFGDLHQTELGPSGAGCQVGINQNGTGKFVKKPASSSSAPQNIPKRTDVKSQDVAVSPQQQQCSKSYVDRHMESLSQSKSFRRRHNSWSSSSRHPNQATPKKSGLKNGQMKNKDDECFGDDIEEIPDTDFDFEGNLALFDKAAVFEEIDTYERRSGTRSRGIPNERPTRYRHDENILESEPIVYRRIIVPHNVSKEFCTDSGLVVPSISYELHKKLLSVAEKHGLTLERRLEMTGVCASQMALTLLGGPNRLNPKNVHQRPTVALLCGPHVKGAQGISCGRHLANHDVQVILFLPNFVKMLESITNELSLFSKTQGQQVSSLKDLPTSPVDLVINCLDCPENVFLRDQPWYKAAVAWANQNRAPVLSIDPPVHEVEQGIDAKWSLALGLPLPLGEHAGRIYLCDIGIPQQVFQEVGINYHSPFGCKFVIPLHSA
partner: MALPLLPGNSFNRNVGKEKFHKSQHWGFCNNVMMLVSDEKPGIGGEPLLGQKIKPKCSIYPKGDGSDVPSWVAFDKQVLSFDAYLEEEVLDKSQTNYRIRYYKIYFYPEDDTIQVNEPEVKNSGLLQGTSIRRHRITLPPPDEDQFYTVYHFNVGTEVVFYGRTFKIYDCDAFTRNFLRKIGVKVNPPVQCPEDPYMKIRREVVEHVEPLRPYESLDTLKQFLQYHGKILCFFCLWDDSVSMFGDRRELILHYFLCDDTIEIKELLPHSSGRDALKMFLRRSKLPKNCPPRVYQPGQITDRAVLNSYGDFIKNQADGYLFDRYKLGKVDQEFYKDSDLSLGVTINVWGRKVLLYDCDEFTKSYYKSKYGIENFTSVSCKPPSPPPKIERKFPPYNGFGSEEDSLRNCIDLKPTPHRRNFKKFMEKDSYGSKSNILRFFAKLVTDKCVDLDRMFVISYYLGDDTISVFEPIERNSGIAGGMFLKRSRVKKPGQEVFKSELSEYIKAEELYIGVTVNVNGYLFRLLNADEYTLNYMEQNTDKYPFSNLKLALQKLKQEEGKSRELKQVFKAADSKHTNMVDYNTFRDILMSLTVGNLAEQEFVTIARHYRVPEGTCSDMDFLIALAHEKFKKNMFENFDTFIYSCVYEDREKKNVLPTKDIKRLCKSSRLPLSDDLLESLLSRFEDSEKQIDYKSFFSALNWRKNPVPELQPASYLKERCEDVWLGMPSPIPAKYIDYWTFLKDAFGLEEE
B2: F-box/LRR-repeat protein 12 (Homo sapiens), Q9NXK8 (parent)
chain: MATLVELPDSVLLEIFSYLPVRDRIRISRVCHRWKRLVDDRWLWRHVDLTLYTMRPKVMWHLLRRYMASRLHSLRMGGYLFSGSQAPQLSPALLRALGQKCPNLKRLCLHVADLSMVPITSLPSTLRTLELHSCEISMAWLHKQQDPTVLPLLECIVLDRVPAFRDEHLQGLTRFRALRSLVLGGTYRVTETGLDAGLQELSYLQRLEVLGCTLSADSTLLAISRHLRDVRKIRLTVRGLSAPGLAVLEGMPALESLCLQGPLVTPEMPSPTEILSSCLTMPKLRVLELQGLGWEGQEAEKILCKGLPHCMVIVRACPKESMDWWM
partner: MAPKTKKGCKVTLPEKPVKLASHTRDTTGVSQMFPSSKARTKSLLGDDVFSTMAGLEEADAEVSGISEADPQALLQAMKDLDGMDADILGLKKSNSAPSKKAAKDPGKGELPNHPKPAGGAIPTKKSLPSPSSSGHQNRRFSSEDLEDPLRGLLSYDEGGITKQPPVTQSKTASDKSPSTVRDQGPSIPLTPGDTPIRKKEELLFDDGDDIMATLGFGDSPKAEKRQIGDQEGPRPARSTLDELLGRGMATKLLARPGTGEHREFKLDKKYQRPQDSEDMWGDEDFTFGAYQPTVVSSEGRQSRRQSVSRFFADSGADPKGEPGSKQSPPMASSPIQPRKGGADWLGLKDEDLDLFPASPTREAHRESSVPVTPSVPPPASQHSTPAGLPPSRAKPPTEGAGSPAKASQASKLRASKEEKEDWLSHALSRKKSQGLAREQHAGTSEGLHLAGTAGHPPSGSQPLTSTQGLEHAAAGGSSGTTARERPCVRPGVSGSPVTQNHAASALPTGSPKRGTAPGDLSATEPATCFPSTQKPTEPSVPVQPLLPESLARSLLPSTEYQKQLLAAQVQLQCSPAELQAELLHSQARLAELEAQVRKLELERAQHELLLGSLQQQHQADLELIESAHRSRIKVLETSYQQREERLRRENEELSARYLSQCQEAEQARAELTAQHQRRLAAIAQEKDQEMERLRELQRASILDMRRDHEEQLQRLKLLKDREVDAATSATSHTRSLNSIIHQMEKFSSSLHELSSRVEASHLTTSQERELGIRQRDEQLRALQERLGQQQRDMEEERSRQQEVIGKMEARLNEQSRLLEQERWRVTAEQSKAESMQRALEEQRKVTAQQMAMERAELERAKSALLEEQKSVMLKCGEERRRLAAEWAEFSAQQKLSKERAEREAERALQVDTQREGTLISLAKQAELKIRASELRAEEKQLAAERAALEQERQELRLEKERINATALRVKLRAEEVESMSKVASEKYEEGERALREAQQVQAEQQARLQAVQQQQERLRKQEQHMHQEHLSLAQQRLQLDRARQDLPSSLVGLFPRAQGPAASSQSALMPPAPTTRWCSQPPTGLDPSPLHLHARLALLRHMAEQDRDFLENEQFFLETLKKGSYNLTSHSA
B3: Genetic suppressor element 1 (Homo sapiens), Q14687 (parent)
chain: MKGMSHEPKSPSLGMLSTATRTTATVNPLTPSPLNGALVPSGSPATSSALSAQAAPSSSFAAALRKLAKQAEEPRGSSLSSESSPVSSPATNHSSPASTPKRVPMGPIIVPPGGHSVPSTPPVVTIAPTKTVNGVWRSESRQDAGSRSSSGGRERLIVEPPLPQEKAGGPAIPSHLLSTPYPFGLSPSSVVQDSRFPPLNLQRPVHHVVPPSTVTEDYLRSFRPYHTTDDLRMSSLPPLGLDPATAAAYYHPSYLAPHPFPHPAFRMDDSYCLSALRSPFYPIPTPGSLPPLHPSAMHLHLSGVRYPPELSHSSLAALHSERMSGLSAERLQMDEELRREREREREREREREADREREKEREREREKEREQEKEREREKERERELERQREQRAREKELLAAKALEPSFLPVAELHGLRGHATEERGKPSEQLTPTRAEKLKDAGLQAPKPVQHPLHPVPTPHHTVPSLISNHGIFSLPSSSAATALLIQRTNEEEKWLARQRRLRQEKEDRQSQVSEFRQQVLEQHLDMGRPPVPAEAEHRPESTTRPGPNRHEPGGRDPPQHFGGPPPLISPKPQLHAAPTALWNPVSLMDNTLETRRAESHSLHSHPAAFEPSRQAAVPLVKVERVFCPEKAEEGPRKREPAPLDKYQPPPPPPREGGSLEHQPFLPGPGPFLAELEKSTQTILGQQRASLPQAATFGELSGPLKPGSPYRPPVPRAPDPAYIYDEFLQQRRRLVSKLDLEERRRREAQEKGYYYDLDDSYDESDEEEVRAHLRCVAEQPPLKLDTSSEKLEFLQLFGLTTQQQKEELVAQKRRKRRRMLRERSPSPPTIQSKRQTPSPRLALSTRYSPDEMNNSPNFEEKKKFLTIFNLTHISAEKRKDKERLVEMLRAMKQKALSAAVADSLTNSPRDSPAVSLSEPATQQASLDVEKPVGVAASLSDIPKAAEPGKLEQVRPQELSRVQELAPASGEKARLSEAPGGKKSLSMLHYIRGAAPKDIPVPLSHSTNGKSKPWEPFVAEEFAHQFHESVLQSTQKALQKHKGSVAVLSAEQNHKVDTSVHYNIPELQSSSRAPPPQHNGQQEPPTARKGPPTQELDRDSEEEEEEDDEDGEDEEEVPKRKWQGIEAVFEAYQEHIEEQNLERQVLQTQCRRLEARHYSLSLTAEQLSHSVAELRSQKQKMVSERERLQAELDHLRKCLALPAMHWPRGYLKGYPR
partner: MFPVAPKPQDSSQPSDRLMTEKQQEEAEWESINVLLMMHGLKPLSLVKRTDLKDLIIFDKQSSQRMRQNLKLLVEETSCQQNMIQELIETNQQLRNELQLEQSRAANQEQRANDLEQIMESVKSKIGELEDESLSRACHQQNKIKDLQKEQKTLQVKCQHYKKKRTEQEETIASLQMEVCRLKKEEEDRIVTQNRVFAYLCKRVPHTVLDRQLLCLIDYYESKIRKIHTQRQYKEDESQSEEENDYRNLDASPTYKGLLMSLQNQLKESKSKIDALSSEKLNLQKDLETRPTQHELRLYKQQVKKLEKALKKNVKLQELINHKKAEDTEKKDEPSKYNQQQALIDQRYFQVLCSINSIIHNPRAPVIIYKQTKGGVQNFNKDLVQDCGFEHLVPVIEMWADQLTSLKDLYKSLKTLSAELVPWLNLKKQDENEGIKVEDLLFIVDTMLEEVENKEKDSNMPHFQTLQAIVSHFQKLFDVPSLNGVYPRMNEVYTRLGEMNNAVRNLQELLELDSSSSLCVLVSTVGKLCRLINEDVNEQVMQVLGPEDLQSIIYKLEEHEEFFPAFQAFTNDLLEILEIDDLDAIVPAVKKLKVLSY
B4: Ribosome assembly protein METTL17, mitochondrial (Homo sapiens), Q9H7H0 (parent)
chain: MAAALKCLLTLGRWCPGLGVAPQARALAALVPGVTQVDNKSGFLQKRPHRQHPGILKLPHVRLPQALANGAQLLLLGSAGPTMENQVQTLTSYLWSRHLPVEPEELQRRARHLEKKFLENPDLSQTEEKLRGAVLHALRKTTYHWQELSYTEGLSLVYMAARLDGGFAAVSRAFHEIRARNPAFQPQTLMDFGSGTGSVTWAAHSIWGQSLREYMCVDRSAAMLVLAEKLLKGGSESGEPYIPGVFFRQFLPVSPKVQFDVVVSAFSLSELPSKADRTEVVQTLWRKTGHFLVLVENGTKAGHSLLMDARDLVLKGKEKSPLDPRPGFVFAPCPHELPCPQLTNLACSFSQAYHPIPFSWNKKPKEEKFSMVILARGSPEEAHRWPRITQPVLKRPRHVHCHLCCPDGHMQHAVLTARRHGRDLYRCARVSSWGDLLPVLTPSAFPPSTAQDPSES
partner: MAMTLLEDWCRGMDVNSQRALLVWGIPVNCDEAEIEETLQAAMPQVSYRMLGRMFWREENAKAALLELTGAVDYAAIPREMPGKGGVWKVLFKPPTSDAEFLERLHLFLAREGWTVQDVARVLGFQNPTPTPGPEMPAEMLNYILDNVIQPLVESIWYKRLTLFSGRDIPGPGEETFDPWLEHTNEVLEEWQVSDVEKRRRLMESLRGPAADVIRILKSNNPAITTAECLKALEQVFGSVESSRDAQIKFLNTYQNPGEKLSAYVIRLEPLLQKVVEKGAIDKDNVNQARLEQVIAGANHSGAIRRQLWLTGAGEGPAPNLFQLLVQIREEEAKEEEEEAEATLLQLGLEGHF
B5: Pleckstrin homology domain-containing family G member 2 (Homo sapiens), Q9H7P9 (parent)
chain: MPEGAQGLSLSKPSPSLGCGRRGEVCDCGTVCETRTAPAAPTMASPRGSGSSTSLSTVGSEGDPAPGPTPACSASRPEPLPGPPIRLHLSPVGIPGSARPSRLERVAREIVETERAYVRDLRSIVEDYLGPLLDGGVLGLSVEQVGTLFANIEDIYEFSSELLEDLENSSSAGGIAECFVQRSEDFDIYTLYCMNYPSSLALLRELSLSPPAALWLQERQAQLRHSLPLQSFLLKPVQRILKYHLLLQELGKHWAEGPGTGGREMVEEAIVSMTAVAWYINDMKRKQEHAARLQEVQRRLGGWTGPELSAFGELVLEGAFRGGGGGGPRLRGGERLLFLFSRMLLVAKRRGLEYTYKGHIFCCNLSVSESPRDPLGFKVSDLTIPKHRHLLQAKNQEEKRLWIHCLQRLFFENHPASIPAKAKQVLLENSLHCAPKSKPVLEPLTPPLGSPRPRDARSFTPGRRNTAPSPGPSVIRRGRRQSEPVKDPYVMFPQNAKPGFKHAGSEGELYPPESQPPVSGSAPPEDLEDAGPPTLDPSGTSITEEILELLNQRGLRDPGPSTHDIPKFPGDSQVPGDSETLTFQALPSRDSSEEEEEEEEGLEMDERGPSPLHVLEGLESSIAAEMPSIPCLTKIPDVPNLPEIPSRCEIPEGSRLPSLSDISDVFEMPCLPAIPSVPNTPSLSSTPTLSCDSWLQGPLQEPAEAPATRRELFSGSNPGKLGEPPSGGKAGPEEDEEGVSFTDFQPQDVTQHQGFPDELAFRSCSEIRSAWQALEQGQLARPGFPEPLLILEDSDLGGDSGSGKAGAPSSERTASRVRELARLYSERIQQMQRAETRASANAPRRRPRVLAQPQPSPCLPQEQAEPGLLPAFGHVLVCELAFPLTCAQESVPLGPAVWVQAAIPLSKQGGSPDGQGLHVSNLPKQDLPGIHVSAATLLPEQGGSRHVQAPAATPLPKQEGPLHLQVPALTTFSDQGHPEIQVPATTPLPEHRSHMVIPAPSTAFCPEQGHCADIHVPTTPALPKEICSDFTVSVTTPVPKQEGHLDSESPTNIPLTKQGGSRDVQGPDPVCSQPIQPLSWHGSSLDPQGPGDTLPPLPCHLPDLQIPGTSPLPAHGSHLDHRIPANAPLSLSQELPDTQVPATTPLPLPQVLTDIWVQALPTSPKQGSLPDIQGPAAAPPLPEPSLTDTQVQKLTPSLEQKSLIDAHVPAATPLPERGGSLDIQGLSPTPVQTTMVLSKPGGSLASHVARLESSDLTPPHSPPPSSRQLLGPNAAALSRYLAASYISQSLARRQGPGGGAPAASRGSWSSAPTSRASSPPPQPQPPPPPARRLSYATTVNIHVGGGGRLRPAKAQVRLNHPALLASTQESMGLHRAQGAPDAPFHM

The variants in the first assay derive from B1. As to conditions: with efhc2_human EFHC2, Q5JST6.
As for F213L, the “effect of a mutation on the interaction” value is “with no effect”.

The variants in a further assay derive from B2. Conditions: with fbf1_human FBF1, Q8TES7.
For the variant I313V, the “effect of a mutation on the interaction” value is “with no effect”.

In the next assay the parent is B3. As to conditions: with cep70_human CEP70, Q8NHQ1.
Turning to E368K, the “effect of a mutation on the interaction” value is “with no effect”.

A further assay covers variants of B3. Conditions: with cep70_human CEP70, Q8NHQ1. This is another data set of the same source.
R503Q: the “effect of a mutation on the interaction” value was “with no effect”.

The variants in another assay derive from B4. Conditions: with pnma1_human PNMA1, Q8ND90.
R212H: the “effect of a mutation on the interaction” value was “with no effect”.

The next assay covers variants of B5. Conditions: with actn3_human ACTN3, Q08043.
Chain of actn3_human ACTN3, Q08043 (Q08043 whole entry): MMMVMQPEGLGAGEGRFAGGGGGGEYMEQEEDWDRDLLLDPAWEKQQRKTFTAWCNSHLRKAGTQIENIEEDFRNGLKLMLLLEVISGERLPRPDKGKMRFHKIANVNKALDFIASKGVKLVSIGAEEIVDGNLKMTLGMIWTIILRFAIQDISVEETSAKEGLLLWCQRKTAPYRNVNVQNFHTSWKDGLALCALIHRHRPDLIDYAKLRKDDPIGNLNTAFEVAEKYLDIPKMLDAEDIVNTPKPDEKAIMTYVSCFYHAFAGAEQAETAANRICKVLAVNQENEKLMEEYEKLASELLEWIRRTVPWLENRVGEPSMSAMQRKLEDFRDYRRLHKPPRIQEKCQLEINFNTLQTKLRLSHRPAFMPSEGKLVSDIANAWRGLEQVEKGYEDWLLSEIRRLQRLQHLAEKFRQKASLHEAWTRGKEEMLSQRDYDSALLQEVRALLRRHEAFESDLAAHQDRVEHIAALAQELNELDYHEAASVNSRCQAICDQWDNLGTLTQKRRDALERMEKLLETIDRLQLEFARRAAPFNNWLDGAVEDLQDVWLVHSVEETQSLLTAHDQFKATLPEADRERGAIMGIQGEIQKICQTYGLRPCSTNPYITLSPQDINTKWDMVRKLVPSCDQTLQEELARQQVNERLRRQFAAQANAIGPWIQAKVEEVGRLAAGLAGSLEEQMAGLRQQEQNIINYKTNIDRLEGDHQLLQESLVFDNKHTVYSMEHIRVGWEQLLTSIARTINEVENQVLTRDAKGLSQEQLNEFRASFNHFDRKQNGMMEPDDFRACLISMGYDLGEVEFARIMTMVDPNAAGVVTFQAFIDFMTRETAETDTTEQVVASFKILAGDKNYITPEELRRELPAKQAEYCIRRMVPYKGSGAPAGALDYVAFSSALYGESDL
Consider V1248I, for which the “effect of a mutation on the interaction” value was “with no effect”.
